# ± gives the half width of the 95% confidence interval.
# Experiment: folding stability dG unfold from trypsin proteolysis; higher = more stable
# Outline: (§1)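 Unfolding free energy was derived, per protease or combined, by relating Bayesian-fitted K50 values from sequencing counts to a sequence-predicted unfolded-state K50 and a shared folded-state K50. The underlying digests exposed cysteine-free mini-proteins under 80 residues, in a PA-tagged cDNA display construct, to trypsin and chymotrypsin at 11 threefold-diluted concentrations and to a no-protease condition. A filter kept only designs with AlphaFold2 dimer inter-PAE above 15.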
row,Sequence,folding stability dG unfold [kcal/mol]
1,SAGGELVLLIRVTPERIEIRLLPKEALEGLELEAPPGERLLLVELEPPPPEEEEREERRREEREELEESAGG [r13_74_TrROS_Hall],1.34 ± 0.13
2,SAGGMMEVEEREVEIELELEPGQSIEEALRELLGLEEGDEIVDVEVEVDPETRKVKIRVVILRPPEEESAGG [r13_828_TrROS_Hall],4.24 ± 0.39
3,SMPLTPAEVAEARARAAREAAEAAAGVPVTVRVTLSTPDRELTVTLPATESLAAVMKAHPDVTVEVEVEASA [r9_513_JUSTAS],0.459 ± 0.043
4,SAGGMIPEELIRKLFEDGKPVPLEQIVELIEKLTGRPVRLEEGEDKFRIVVLDPDTPELLDEIEIDFSAGGS [r8_105_TrMRF],1.43 ± 0.086
5,SAGGSAKITPGEEINFMFYNPENGQPFMVRIRIEKITVKRKPKDGKRKVEYKIKIEMSPGMKEITISAGGSA [r15_248_TrROS],2.26 ± 0.15
6,SAGGSAGGSMIKVKITYPNGEEKTIEIEAETEEEAEEAAKKLAEELGKDVKVEVEKVSPEELKSAGGSAGGS [r12_385_TrROS_Hall],1.64 ± 0.075
7,SAGMETVKIKVRVKVTVRERLPDGTVKTREFELTLEIEVEVEPGQTAEELAKKLAEEFNIEEVEIEKVPSAG [r5_994_TrROS_Hall],2.57 ± 0.19
8,SAGGSAGGLKEALKLAEELGAKPHVVKTKGNSEIVFLELKDGRKIRLLVENGKIKEIIPIPETPSAGGSAGG [r6_548_TrMRF],1.86 ± 0.065
9,SAGGSAGGSVKVYTIEFLGDGKPYLLSIDDNGNFVIYVPNPKNIDAVKKAIPSNYKIVEIKPLSAGGSAGGS [r12_9_TrMRF],0.989 ± 0.036
10,SAGGSAGGSMSPEEAKKLAEELAKKLGLEKVEIVEIKVEVDEETNEIKVTIYIRGKDGKWYKLSAGGSAGGS [r12_508_TrROS_Hall],3.48 ± 0.18
11,SAGGSAGGKKKVLILPKGKKKEYTIEEAKKILKEKLPENAKVRLLETGKEYPVKDLLKKLGIDLSAGGSAGG [r6_936_TrMRF],-0.276 ± 0.28
12,SAGGSAGGSPDLPELNIEPVSTLPDGSKIYRADVSPEAIARLKAANPAVTVEEHPDFLLLFLRESAGGSAGG [r6_395_JUSTAS],0.475 ± 0.059
13,SAGGMNIVTYTLTIPPGRIEEVKEAIEALGIPVVKVELVEVLPGEGLAIVKIEVPNNVDPEKVKKALSSAGG [r13_725_JUSTAS],3.97 ± 0.19
14,SAGGSAGGSAGMVETVSTTTSVETGPDSTRYTTTTTTVLVTDSSGTPIATTTTTTTTVTASAGGSAGGSAGG [r17_139_JUSTAS],1.45 ± 0.051
15,SAGAPGEVTVTVVRRPRVETEEERRRRRAPPPPVVTLTLKVPPGWVVRRVAFNADGEIVSVELYRRDDLSAG [r5_750_TrROS_Hall],1.38 ± 0.029
16,SAGGSAGGSAGGMIKVTFKIPGKNETIEIDFDSEEELEEKFKELREKLGYNIEVVEIEESAGGSAGGSAGGS [r10_1087_JUSTAS],2.19 ± 0.19

row,Sequence,folding stability dG unfold [kcal/mol]
1,SATFRLPNGKTISIMAPLPPGEMTPDQVISMARMIVRNIFPPGKKVEVKIEVEQYPNGMVHVKIPIKAESAG [r14_389_TrROS],0.0799 ± 0.31
2,SAGGEVLIDTGPSPEEALYRAYEKGGEVPVIVLEPGSRVLHIFNVRFNPIPKKVEILDEYEIPILPELSAGG [r13_309_TrMRF],1.18 ± 0.025
3,SAGGSADIARKIAKWLAEMYGIEEIKVKDIDPNGYIKVEIKMRMYDDGEPVEHKMDIEIPIPPGDLSAGGSA [r15_646_TrROS],1.3 ± 0.035
4,SAGGSAGGSAGGDVKVTVTVTVDPETGEPVVEVTLELPGDRAIRARFTPDGRLLSVEEVDSAGGSAGGSAGG [r7_454_TrMRF],3.79 ± 0.25
5,SAGGSAMPPGEPIGSFSFPFNNGGNLMISAYPGGEIKISWWGPDGRPHEHEFPVKVKPPPPEDEGKSAGGSA [r15_478_TrROS],1.33 ± 0.053
6,SAGGSMTEEELEKKAKEIAEELEKKYKEENPNVEVKVTFEVIPEKGIIKITATSPKGKKLKEIIIPLLSAGG [r13_247_JUSTAS],3.74 ± 0.28
7,SAGGSASSMLSPSLYVTTITVKKPGGMTVTETVPGTPEEVERLIEELKKKGLEVEKVDVVPVSELVSAGGSA [r15_640_JUSTAS],1.9 ± 0.062
8,SAGGGSTVTTTTPDGTSVSTTTLPDGTVTATATYPDSTVSTTYDPATNTTTVTTTSGGTTVATTTVAASAGG [r13_748_JUSTAS],2.48 ± 0.11
9,SAGGSASAPVPTSVSVSVSSDPASGLTTIPTTVTYNGKTFPMSVTTTPSGTVVTKVGGSTFTVPAASAGGSA [r15_507_JUSTAS],0.0583 ± 0.075
10,SAGGSAGGSAGGKKKIKVELEVKEDGTIRMKATTEDGEEIETEIKVEKVEVTVFLPPEKSAGGSAGGSAGGS [r10_237_TrROS_Hall],1.74 ± 0.26
11,SAGGSAGGSAGGGIVIEGDIESIEVEKNPDTDYYLVTVRFKSTDKPYTFVFKKDEKLDVSAGGSAGGSAGGS [r10_819_TrMRF],1.49 ± 0.036
12,SAGMPSFTTTSAPTEQLPELLAELATRPPNVSYTFPLPDPSRSLSLSVSADRITLTDPATGTTTTLPASAGG [r19_154_JUSTAS],-0.653 ± 0.17
13,SAGGTVTIFIPGMSLDQIKKFIKFFRDNPDRPVTIHMPNGYMIEIDPKGKIDNIKVRRMPPMPEDDQSAGGS [r16_248_TrROS],1.52 ± 0.036
14,SAGGSAGGSAGGMTVLETEVTTLPNGVVKTTTLYKDPSTGALHTVTEEVYVPLGETALLSAGGSAGGSAGGS [r10_72_JUSTAS],0.716 ± 0.022
15,SAGGGSVSVTPVKEIPGPGTTTLYRETHPDDRTVLITYNPATGTVTVTTYKGNTKTSTTTYNTPESLSAGGS [r16_457_JUSTAS],1.05 ± 0.035

# Experiment: folding stability dG unfold from chymotrypsin proteolysis; higher = more stable
# Outline: as §1
row,Sequence,folding stability dG unfold [kcal/mol]
1,SAGGELVLLIRVTPERIEIRLLPKEALEGLELEAPPGERLLLVELEPPPPEEEEREERRREEREELEESAGG [r13_74_TrROS_Hall],1.4 ± 0.23
2,SAGGMMEVEEREVEIELELEPGQSIEEALRELLGLEEGDEIVDVEVEVDPETRKVKIRVVILRPPEEESAGG [r13_828_TrROS_Hall],2.79 ± 0.2
3,SMPLTPAEVAEARARAAREAAEAAAGVPVTVRVTLSTPDRELTVTLPATESLAAVMKAHPDVTVEVEVEASA [r9_513_JUSTAS],0.0452 ± 0.11
4,SAGGMIPEELIRKLFEDGKPVPLEQIVELIEKLTGRPVRLEEGEDKFRIVVLDPDTPELLDEIEIDFSAGGS [r8_105_TrMRF],1.57 ± 0.028
5,SAGGSAKITPGEEINFMFYNPENGQPFMVRIRIEKITVKRKPKDGKRKVEYKIKIEMSPGMKEITISAGGSA [r15_248_TrROS],3.32 ± 0.11
6,SAGGSAGGSMIKVKITYPNGEEKTIEIEAETEEEAEEAAKKLAEELGKDVKVEVEKVSPEELKSAGGSAGGS [r12_385_TrROS_Hall],1.22 ± 0.034
7,SAGMETVKIKVRVKVTVRERLPDGTVKTREFELTLEIEVEVEPGQTAEELAKKLAEEFNIEEVEIEKVPSAG [r5_994_TrROS_Hall],3.83 ± 0.58
8,SAGGSAGGLKEALKLAEELGAKPHVVKTKGNSEIVFLELKDGRKIRLLVENGKIKEIIPIPETPSAGGSAGG [r6_548_TrMRF],2.39 ± 0.065
9,SAGGSAGGSVKVYTIEFLGDGKPYLLSIDDNGNFVIYVPNPKNIDAVKKAIPSNYKIVEIKPLSAGGSAGGS [r12_9_TrMRF],2.01 ± 0.13
10,SAGGSAGGSMSPEEAKKLAEELAKKLGLEKVEIVEIKVEVDEETNEIKVTIYIRGKDGKWYKLSAGGSAGGS [r12_508_TrROS_Hall],4.2 ± 0.07
11,SAGGSAGGKKKVLILPKGKKKEYTIEEAKKILKEKLPENAKVRLLETGKEYPVKDLLKKLGIDLSAGGSAGG [r6_936_TrMRF],-0.411 ± 0.65
12,SAGGSAGGSPDLPELNIEPVSTLPDGSKIYRADVSPEAIARLKAANPAVTVEEHPDFLLLFLRESAGGSAGG [r6_395_JUSTAS],0.666 ± 0.058
13,SAGGMNIVTYTLTIPPGRIEEVKEAIEALGIPVVKVELVEVLPGEGLAIVKIEVPNNVDPEKVKKALSSAGG [r13_725_JUSTAS],4.13 ± 0.14
14,SAGGSAGGSAGMVETVSTTTSVETGPDSTRYTTTTTTVLVTDSSGTPIATTTTTTTTVTASAGGSAGGSAGG [r17_139_JUSTAS],0.314 ± 0.17
15,SAGAPGEVTVTVVRRPRVETEEERRRRRAPPPPVVTLTLKVPPGWVVRRVAFNADGEIVSVELYRRDDLSAG [r5_750_TrROS_Hall],3.03 ± 0.031

# Reference: the supplement of paper PMC12764529
